The text below walks through data of article PMC4553633, “RA Acts in a Coherent Feed-Forward Mechanism with Tbx5 to Control Limb Bud Induction and Initiation”.

In the data set the target is T1, flag-RARα (mRARα);myc-RXRα (mRXRα) (Mus musculus;Mus musculus, UniProt P11416;P28700 1-462;1-467, |).
T1 sequence 1: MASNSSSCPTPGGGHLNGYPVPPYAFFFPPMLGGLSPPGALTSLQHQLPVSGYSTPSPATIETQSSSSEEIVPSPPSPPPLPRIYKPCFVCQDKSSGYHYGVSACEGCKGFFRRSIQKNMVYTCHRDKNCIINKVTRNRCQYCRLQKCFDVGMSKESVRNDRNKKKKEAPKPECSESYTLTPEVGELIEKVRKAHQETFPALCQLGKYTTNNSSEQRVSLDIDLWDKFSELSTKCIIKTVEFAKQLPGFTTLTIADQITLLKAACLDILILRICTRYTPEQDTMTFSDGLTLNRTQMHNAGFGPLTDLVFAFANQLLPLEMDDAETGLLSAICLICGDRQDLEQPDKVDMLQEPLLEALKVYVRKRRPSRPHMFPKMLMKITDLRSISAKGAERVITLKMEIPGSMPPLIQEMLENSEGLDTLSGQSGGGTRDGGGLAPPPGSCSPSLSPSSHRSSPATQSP
T1 sequence 2: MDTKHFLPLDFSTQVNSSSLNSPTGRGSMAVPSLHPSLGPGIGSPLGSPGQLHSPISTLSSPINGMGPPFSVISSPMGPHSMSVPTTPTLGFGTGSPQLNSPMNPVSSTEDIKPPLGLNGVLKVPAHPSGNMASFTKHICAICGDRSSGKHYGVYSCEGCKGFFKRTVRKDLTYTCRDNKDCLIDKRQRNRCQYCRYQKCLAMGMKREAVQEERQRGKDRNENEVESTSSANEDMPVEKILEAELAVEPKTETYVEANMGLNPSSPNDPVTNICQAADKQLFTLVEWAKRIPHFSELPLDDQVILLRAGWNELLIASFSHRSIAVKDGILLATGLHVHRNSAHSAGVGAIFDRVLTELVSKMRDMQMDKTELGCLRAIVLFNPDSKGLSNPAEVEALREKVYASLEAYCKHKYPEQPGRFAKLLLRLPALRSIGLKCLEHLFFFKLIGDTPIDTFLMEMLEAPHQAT
Put plainly: EMSA; EMSA essentially as Forman et al. 1992 and Shtutman et al. 1999; buffer, salt, pH and temperature not stated. The conditions noted are these: protein: ivt;ivt; tags: N-terminal flag;N-terminal myc; copies: 1;1; blunt (complement S6 printed; duplex implied).

B1: RARE3 mut (dsDNA)
DNA 1: CCGGCAGCTGCGATGACTGCTCCCTCCTTA
DNA 2: TAAGGAGGGAGCAGTCATCGCAGCTGCCGG
Turning to B1, the binding result was “no binding”.
